Publication PMC8849274 (Oncotarget, 2022)

What was measured:
Type in all cases: in vivo
[1] = Biodistribution in mice bearing CaSki xenografts; conditions: female, athymic nude, mouse, iv, total radioactivity; for tissue uptake at 1 h: 1 h p.i.; for tissue uptake at 24 h: 24 h p.i.
Excerpt: (§1) Animals were supplied by Charles River Laboratories (Wilmington, MA, USA), and were handled in compliance with the Guidelines for Care and Use of Research Animals established by the Division of Comparative Medicine and the Animal Studies Committee of Washington University School of Medicine under protocol #20–0214. Female athymic nude mice were inoculated on the right flank with 10 × 10^6 CaSki or 5 × 10^6 BxPC-3 cells. Tumors were allowed to grow until they approached approximately 100 mm^3 in volume. Radiolabeled peptides were diluted in saline to a dose of 0.37 MBq (10 μCi) per 100 μl. […] For blocking experiments, non-PEGylated peptide (100 μg in 100 μL saline) was injected ten minutes before radiotracer. Blood, lung, liver, spleen, kidney, muscle, heart, bone, and tumor were harvested. The amount of radioactivity in each organ was determined by gamma counting, and the percent injected dose per gram of tissue (% ID/g) was calculated.

[2] = Biodistribution in mice bearing BxPC-3 xenografts; conditions: female, athymic nude, mouse, iv, total radioactivity, BxPC-3 tumor-bearing mice; for tissue uptake at 1 h: 1 h p.i.; for tissue uptake at 24 h: 24 h p.i.
Excerpt: as §1

[3] = Small animal PET/CT imaging, BxPC-3 tumors; conditions: female, mouse, tumor (BxPC-3 xenograft), iv, total radioactivity, athymic nude mice bearing BxPC-3 tumors, 3.7 MBq i.v., without blocking, n = 3, read-out: SUVmax of tumors
Procedure: BxPC-3 cells (5 × 10^6) were inoculated in the right shoulder of female athymic nude mice 3–4 weeks before PET imaging sessions. All the experiments involving animals followed the Guidelines for Care and Use of Research Animals established by the Division of Comparative Medicine and the Animal Studies Committee of Washington University School of Medicine under protocol #20–0214. […] Mice were imaged with CT followed by static PET scans at 1, 4, and 24 h after tracer administration on an Inveon small animal PET/CT scanner (Siemens Medical Solutions, Malvern, PA, USA). Static images were collected for 20 min and reconstructed with the maximum a posteriori (MAP) reconstruction algorithm using the Inveon Reseach Workstation image display software (Siemens). Regions of interest (ROI) were selected based on co-registered anatomical CT images, and the associated radioactivity was measured using the Inveon software. The maximum standard uptake value (SUV) was calculated as the highest regional radioactivity concentration (nCi/cc) × animal weight (g)/decay-corrected amount of injected dose (nCi).

Compound: CC(C)C[C@H](NC(=O)[C@H](CC(=O)O)NC(=O)CNC(=O)[C@H](CCCNC(=N)N)NC(=O)[C@H](CC(C)C)NC(=O)[C@H](CC(N)=O)NC(=O)[C@@H]1CCCN1C(=O)[C@@H](NC(=O)[C@H](C)NC(=O)[C@H](CC(N)=O)NC(=O)CCOCCOCCOCCOCCOCCOCCOCCOCCOCCOCCOCCOCCOCCOCCOCCOCCOCCOCCOCCOCCOCCOCCOCCOCCOCCOCCOCCOCCNC(=O)CN1CCN(CC(=O)O)Cc2cccc(n2)CN(CC(=O)O)CC1)C(C)C)C(=O)N[C@@H](CCC(N)=O)C(=O)N[C@H](C(=O)N[C@@H](CC(C)C)C(=O)N[C@@H](C)C(=O)N[C@@H](CCC(N)=O)C(=O)N[C@@H](CCCCN)C(=O)N[C@H](C(=O)N[C@@H](C)C(=O)N[C@@H](CCCNC(=N)N)C(=O)N[C@H](C(=O)NCCOCCOCCOCCOCCOCCOCCOCCOCCOCCOCCOCCOCCOCCOCCOCCOCCOCCOCCOCCOCCOCCOCCOCCOCCOCCOCCOCCOCCC(N)=O)[C@@H](C)O)C(C)C)C(C)C [[^64Cu]Cu-PCTA-(PEG28)2-A20FMDV2, metal not drawn]
- tissue uptake at 1 h ([1]; blood, CaSki tumor-bearing mice, 0.37 MBq i.v., gamma counting, mean, n = 4, read-out: Uptake in Blood): 0.54 %ID/g
- tissue uptake at 24 h ([1]; blood, CaSki tumor-bearing mice, 0.37 MBq i.v., read-out: Radioactivity remaining in the blood): 0.53 ± 0.1 %ID/g
- tissue uptake at 1 h ([1]; blood, CaSki tumor-bearing mice, non-PEGylated A20FMDV2 100 μg injected 10 min before radiotracer, read-out: Uptake in Blood, 1 h Block): 0.76 %ID/g
- tissue uptake at 1 h ([1]; bone, CaSki tumor-bearing mice, 0.37 MBq i.v., gamma counting, mean, n = 4, read-out: Uptake in Bone): 0.54 %ID/g
- tissue uptake at 1 h ([1]; bone, CaSki tumor-bearing mice, non-PEGylated A20FMDV2 100 μg injected 10 min before radiotracer, read-out: Uptake in Bone, 1 h Block): 0.39 %ID/g
- tissue uptake at 1 h ([1]; heart, CaSki tumor-bearing mice, 0.37 MBq i.v., gamma counting, mean, n = 4, read-out: Uptake in Heart): 2.46 %ID/g
- tissue uptake at 1 h ([1]; heart, CaSki tumor-bearing mice, non-PEGylated A20FMDV2 100 μg injected 10 min before radiotracer, read-out: Uptake in Heart, 1 h Block): 0.55 %ID/g
- tissue uptake at 1 h ([1]; kidney, CaSki tumor-bearing mice, 0.37 MBq i.v., gamma counting, mean, n = 4, read-out: Uptake in Kidney): 114 ± 38.3 %ID/g
- tissue uptake at 24 h ([1]; kidney, CaSki tumor-bearing mice, 0.37 MBq i.v., read-out: Uptake in Kidney): 24.4 ± 6.54 %ID/g
- tissue uptake at 1 h ([1]; kidney, CaSki tumor-bearing mice, non-PEGylated A20FMDV2 100 μg injected 10 min before radiotracer, read-out: Uptake in Kidney, 1 h Block): 43.6 %ID/g
- tissue uptake at 1 h ([1]; liver, CaSki tumor-bearing mice, 0.37 MBq i.v., gamma counting, mean, n = 4, read-out: Uptake in Liver): 6.81 %ID/g
- tissue uptake at 1 h ([1]; liver, CaSki tumor-bearing mice, non-PEGylated A20FMDV2 100 μg injected 10 min before radiotracer, read-out: Uptake in Liver, 1 h Block): 3.04 %ID/g
- tissue uptake at 1 h ([1]; lung, CaSki tumor-bearing mice, 0.37 MBq i.v., gamma counting, mean, n = 4, read-out: Uptake in Lung): 3.76 %ID/g
- tissue uptake at 1 h ([1]; lung, CaSki tumor-bearing mice, non-PEGylated A20FMDV2 100 μg injected 10 min before radiotracer, read-out: Uptake in Lung, 1 h Block): 1.43 %ID/g
- tissue uptake at 1 h ([1]; muscle, CaSki tumor-bearing mice, 0.37 MBq i.v., gamma counting, mean, n = 4, read-out: Uptake in Muscle): 1.23 %ID/g
- tissue uptake at 1 h ([1]; muscle, CaSki tumor-bearing mice, non-PEGylated A20FMDV2 100 μg injected 10 min before radiotracer, read-out: Uptake in Muscle, 1 h Block): 0.43 %ID/g
- tissue uptake at 1 h ([1]; spleen, CaSki tumor-bearing mice, 0.37 MBq i.v., gamma counting, mean, n = 4, read-out: Uptake in Spleen): 0.63 %ID/g
- tissue uptake at 1 h ([1]; spleen, CaSki tumor-bearing mice, non-PEGylated A20FMDV2 100 μg injected 10 min before radiotracer, read-out: Uptake in Spleen, 1 h Block): 0.54 %ID/g
- tissue uptake at 1 h ([1]; tumor (CaSki xenograft), 0.37 MBq i.v., gamma counting, mean, n = 4, read-out: Tumor Uptake): 1.63 ± 0.53 %ID/g
- tissue uptake at 1 h ([1]; tumor (CaSki xenograft), non-PEGylated A20FMDV2 100 μg injected 10 min before radiotracer, read-out: Tumor uptake, 1 h Block): 0.67 ± 0.26 %ID/g
- tissue uptake at 1 h ([2]; blood, 0.37 MBq i.v., gamma counting, mean, n = 4, read-out: Uptake in Blood): 0.27 %ID/g
- tissue uptake at 1 h ([2]; blood, non-PEGylated A20FMDV2 100 μg injected 10 min before radiotracer, read-out: Uptake in Blood, 1 h Block): 0.27 %ID/g
- tissue uptake at 1 h ([2]; bone, 0.37 MBq i.v., gamma counting, mean, n = 4, read-out: Uptake in Bone): 0.38 %ID/g
- tissue uptake at 1 h ([2]; bone, non-PEGylated A20FMDV2 100 μg injected 10 min before radiotracer, read-out: Uptake in Bone, 1 h Block): 0.66 %ID/g
- tissue uptake at 1 h ([2]; heart, 0.37 MBq i.v., gamma counting, mean, n = 4, read-out: Uptake in Heart): 1.9 %ID/g
- tissue uptake at 1 h ([2]; heart, non-PEGylated A20FMDV2 100 μg injected 10 min before radiotracer, read-out: Uptake in Heart, 1 h Block): 0.27 %ID/g
- tissue uptake at 1 h ([2]; 0.37 MBq i.v., gamma counting, mean, n = 4, read-out: Tumor Uptake): 3.86 ± 0.58 %ID/g
- tissue uptake at 1 h ([2]; kidney, 0.37 MBq i.v., gamma counting, mean, n = 4, read-out: Uptake in Kidney): 105 ± 13.6 %ID/g
- tissue uptake at 24 h ([2]; kidney, 0.37 MBq i.v., read-out: Uptake in Kidney): 28.6 ± 8.45 %ID/g
- tissue uptake at 1 h ([2]; kidney, non-PEGylated A20FMDV2 100 μg injected 10 min before radiotracer, read-out: Uptake in Kidney, 1 h Block): 80.6 %ID/g
- tissue uptake at 1 h ([2]; liver, 0.37 MBq i.v., gamma counting, mean, n = 4, read-out: Uptake in Liver): 1.94 %ID/g
- tissue uptake at 1 h ([2]; liver, non-PEGylated A20FMDV2 100 μg injected 10 min before radiotracer, read-out: Uptake in Liver, 1 h Block): 1.68 %ID/g
- tissue uptake at 1 h ([2]; lung, 0.37 MBq i.v., gamma counting, mean, n = 4, read-out: Uptake in Lung): 2.58 %ID/g
- tissue uptake at 1 h ([2]; lung, non-PEGylated A20FMDV2 100 μg injected 10 min before radiotracer, read-out: Uptake in Lung, 1 h Block): 1.25 %ID/g
- tissue uptake at 1 h ([2]; muscle, 0.37 MBq i.v., gamma counting, mean, n = 4, read-out: Uptake in Muscle): 1.13 %ID/g
- tissue uptake at 1 h ([2]; muscle, non-PEGylated A20FMDV2 100 μg injected 10 min before radiotracer, read-out: Uptake in Muscle, 1 h Block): 0.28 %ID/g
- tissue uptake at 1 h ([2]; spleen, 0.37 MBq i.v., gamma counting, mean, n = 4, read-out: Uptake in Spleen): 0.28 %ID/g
- tissue uptake at 1 h ([2]; spleen, non-PEGylated A20FMDV2 100 μg injected 10 min before radiotracer, read-out: Uptake in Spleen, 1 h Block): 0.24 %ID/g
- tissue uptake at 4 h ([2]; tumor (BxPC-3 xenograft), 0.37 MBq i.v., 4 h p.i.): 3.09 ± 0.77 %ID/g
- tissue uptake at 24 h ([2]; tumor (BxPC-3 xenograft), 0.37 MBq i.v., read-out: Tumor Uptake): 2.45 ± 0.57 %ID/g
- tissue uptake at 1 h ([2]; tumor (BxPC-3 xenograft), non-PEGylated A20FMDV2 100 μg injected 10 min before radiotracer, read-out: Tumor uptake, 1 h Block): 0.75 ± 0.09 %ID/g
- SUV at 1 h ([3]; PET at 1 h): 0.46 ± 0.04 SUV
- SUV at 4 h ([3]; PET at 4 h): 0.54 ± 0.05 SUV
- SUV at 24 h ([3]; PET at 24 h): 0.74 ± 0.21 SUV
